The text below walks through data of IntAct's records for PubMed 29039417.

The labels stand for the following.
B1: BBSome complex member BBS2 (Homo sapiens), Q9BXC9 (parent)
chain: MLLPVFTLKLRHKISPRMVAIGRYDGTHPCLAAATQTGKVFIHNPHTRNQHVSASRVFQSPLESDVSLLSINQAVSCLTAGVLNPELGYDALLVGTQTNLLAYDVYNNSDLFYREVADGANAIVLGTLGDISSPLAIIGGNCALQGFNHEGSDLFWTVTGDNVNSLALCDFDGDGKKELLVGSEDFDIRVFKEDEIVAEMTETEIVTSLCPMYGSRFGYALSNGTVGVYDKTSRYWRIKSKNHAMSIHAFDLNSDGVNELITGWSNGKVDARSDRTGEVIFKDNFSSAIAGVVEGDYRMDGHIQLICCSVDGEIRGYLPGTAEMRGNLMDTSAEQDLIRELSQKKQNLLLELRNYEENAKAELASPLNEADGHRGIIPANTRLHTTLSVSLGNETQTAHTELRISTSNDTIIRAVLIFAEGIFTGESHVVHPSIHNLSSSICIPIVPPKDVPVDLHLKAFVGYRSSTQFHVFESTRQLPRFSMYALTSLDPASEPISYVNFTIAERAQRVVVWLGQNFLLPEDTHIQNAPFQVCFTSLRNGGHLHIKIKLSGEITINTDDIDLAGDIIQSMASFFAIEDLQVEADFPVYFEELRKVLVKVDEYHSVHQKLSADMADHSNLIRSLLVGAEDARLMRDMKTMKSRYMELYDLNRDLLNGYKIRCNNHTELLGNLKAVNQAIQRAGRLRVGKPKNQVITACRDAIRSNNINTLFKIMRVGTASS
partner: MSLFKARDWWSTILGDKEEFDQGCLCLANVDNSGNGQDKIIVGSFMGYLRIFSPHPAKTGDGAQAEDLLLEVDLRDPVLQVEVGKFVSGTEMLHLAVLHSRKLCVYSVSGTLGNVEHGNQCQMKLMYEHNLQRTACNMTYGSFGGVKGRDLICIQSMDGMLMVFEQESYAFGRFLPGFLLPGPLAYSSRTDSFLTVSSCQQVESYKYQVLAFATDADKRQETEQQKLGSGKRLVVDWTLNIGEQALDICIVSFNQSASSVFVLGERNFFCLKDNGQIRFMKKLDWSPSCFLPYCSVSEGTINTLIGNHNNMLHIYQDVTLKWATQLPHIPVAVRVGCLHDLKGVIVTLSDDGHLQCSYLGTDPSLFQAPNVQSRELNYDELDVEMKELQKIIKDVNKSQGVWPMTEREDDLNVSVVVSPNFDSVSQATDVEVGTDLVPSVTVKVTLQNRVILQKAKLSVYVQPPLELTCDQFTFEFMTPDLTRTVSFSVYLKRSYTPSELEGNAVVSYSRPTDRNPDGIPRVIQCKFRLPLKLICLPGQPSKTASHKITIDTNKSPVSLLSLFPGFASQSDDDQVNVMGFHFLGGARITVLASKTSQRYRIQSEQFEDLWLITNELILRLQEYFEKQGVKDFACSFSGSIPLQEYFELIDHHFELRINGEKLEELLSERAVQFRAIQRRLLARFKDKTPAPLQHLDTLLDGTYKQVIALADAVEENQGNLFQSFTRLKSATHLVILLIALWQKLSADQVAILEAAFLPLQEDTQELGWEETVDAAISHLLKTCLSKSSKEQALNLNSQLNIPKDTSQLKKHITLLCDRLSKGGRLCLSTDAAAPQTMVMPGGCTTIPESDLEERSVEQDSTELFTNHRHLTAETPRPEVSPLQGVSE

The variants in the assay derive from B1. The note with it: with pthb1_human BBS9, Q3SYG4.
For E629K, the “effect of a mutation on the interaction” value is “with no effect”.

Take E629A: the “effect of a mutation on the interaction” value was “with no effect”.

For G670E, the “effect of a mutation on the interaction” value is on record as “with no effect”.

With G670A, the “effect of a mutation on the interaction” value is “with no effect”.

On to G670K, for which the “effect of a mutation on the interaction” value was “with no effect”.

Regarding H665K, the “effect of a mutation on the interaction” value is reported as “with no effect”.

H665A: the “effect of a mutation on the interaction” value is reported as “with no effect”.

In the case of H665E, the “effect of a mutation on the interaction” value is reported as “with no effect”.

With I660A, the “effect of a mutation on the interaction” value is listed as “with no effect”.

On to I660E, for which the “effect of a mutation on the interaction” value was “with no effect”.

On to I660K, for which the “effect of a mutation on the interaction” value is “with no effect”.

Regarding R652E, the “effect of a mutation on the interaction” value is given as “with no effect”.

With R652K, the “effect of a mutation on the interaction” value is “with no effect”.

For R652A, the “effect of a mutation on the interaction” value is on record as “with no effect”.

As to K673A, the “effect of a mutation on the interaction” value is reported as “with no effect”.

On to K673E, for which the “effect of a mutation on the interaction” value is listed as “with no effect”.

On to N671E, for which the “effect of a mutation on the interaction” value is reported as “with no effect”.

On to N671K, for which the “effect of a mutation on the interaction” value is on record as “with no effect”.

In the case of N671A, the “effect of a mutation on the interaction” value is recorded as “with no effect”.

For S642E, the “effect of a mutation on the interaction” value is given as “with no effect”.

As to S642A, the “effect of a mutation on the interaction” value was “with no effect”.

For S642K, the “effect of a mutation on the interaction” value was “with no effect”.

Turning to G683A, the “effect of a mutation on the interaction” value is listed as “with no effect”.

As to G683E, the “effect of a mutation on the interaction” value is “with no effect”.

Take G683K: the “effect of a mutation on the interaction” value is recorded as “with no effect”.

Turning to N663K, the “effect of a mutation on the interaction” value is listed as “with no effect”.

In the case of N663E, the “effect of a mutation on the interaction” value was “with no effect”.

Turning to N663A, the “effect of a mutation on the interaction” value is listed as “with no effect”.

With K641E, the “effect of a mutation on the interaction” value was “with no effect”.

Turning to K641A, the “effect of a mutation on the interaction” value is on record as “with no effect”.

For the variant N676A, the “effect of a mutation on the interaction” value was “with no effect”.

N676E: the “effect of a mutation on the interaction” value was “with no effect”.

As for N676K, the “effect of a mutation on the interaction” value is listed as “with no effect”.

Turning to L669E, the “effect of a mutation on the interaction” value was “with no effect”.

For the variant L669K, the “effect of a mutation on the interaction” value is recorded as “with no effect”.

Take L669A: the “effect of a mutation on the interaction” value was “with no effect”.

Consider R643A, for which the “effect of a mutation on the interaction” value is given as “with no effect”.

As to R643K, the “effect of a mutation on the interaction” value is reported as “with no effect”.

For R643E, the “effect of a mutation on the interaction” value is given as “with no effect”.

Consider Y658E, for which the “effect of a mutation on the interaction” value is listed as “with no effect”.

Consider Y658K, for which the “effect of a mutation on the interaction” value is given as “with no effect”.

As for Y658A, the “effect of a mutation on the interaction” value is “with no effect”.

For M645A, the “effect of a mutation on the interaction” value is given as “with no effect”.

M645K: the “effect of a mutation on the interaction” value was “with no effect”.

With M645E, the “effect of a mutation on the interaction” value is on record as “with no effect”.

Regarding D636K, the “effect of a mutation on the interaction” value is listed as “with no effect”.

As for D636A, the “effect of a mutation on the interaction” value is listed as “with no effect”.

Consider D636G, for which the “effect of a mutation on the interaction” value is given as “disrupting interaction strength”.

D636E: the “effect of a mutation on the interaction” value is “with no effect”.

As to A631K, the “effect of a mutation on the interaction” value was “with no effect”.

A631E: the “effect of a mutation on the interaction” value is reported as “with no effect”.

Take G657E: the “effect of a mutation on the interaction” value is reported as “with no effect”.

Regarding G657K, the “effect of a mutation on the interaction” value is listed as “with no effect”.

Turning to G657A, the “effect of a mutation on the interaction” value was “with no effect”.

Turning to N651K, the “effect of a mutation on the interaction” value is given as “with no effect”.

For the variant N651E, the “effect of a mutation on the interaction” value is “with no effect”.

With N651A, the “effect of a mutation on the interaction” value is “with no effect”.

Turning to L685A, the “effect of a mutation on the interaction” value is “with no effect”.

On to L685K, for which the “effect of a mutation on the interaction” value was “with no effect”.

Turning to L685E, the “effect of a mutation on the interaction” value was “with no effect”.

With L654E, the “effect of a mutation on the interaction” value is “with no effect”.

Turning to L654K, the “effect of a mutation on the interaction” value is “with no effect”.

Consider L654A, for which the “effect of a mutation on the interaction” value is recorded as “with no effect”.

As for A678E, the “effect of a mutation on the interaction” value is given as “with no effect”.

In the case of A678K, the “effect of a mutation on the interaction” value was “with no effect”.

Turning to L650K, the “effect of a mutation on the interaction” value is on record as “with no effect”.

On to L650E, for which the “effect of a mutation on the interaction” value is “with no effect”.

For L650A, the “effect of a mutation on the interaction” value was “with no effect”.

V626A: the “effect of a mutation on the interaction” value is listed as “with no effect”.

Consider V626E, for which the “effect of a mutation on the interaction” value is recorded as “with no effect”.

Turning to V626K, the “effect of a mutation on the interaction” value is “with no effect”.

For C662K, the “effect of a mutation on the interaction” value is “with no effect”.

Regarding C662A, the “effect of a mutation on the interaction” value is “with no effect”.

Regarding C662E, the “effect of a mutation on the interaction” value was “with no effect”.

For M640A, the “effect of a mutation on the interaction” value was “with no effect”.

As to M640E, the “effect of a mutation on the interaction” value is on record as “with no effect”.

Consider M640K, for which the “effect of a mutation on the interaction” value was “with no effect”.

As for I621E, the “effect of a mutation on the interaction” value is given as “with no effect”.

In the case of I621K, the “effect of a mutation on the interaction” value is given as “with no effect”.

As for I621A, the “effect of a mutation on the interaction” value was “with no effect”.

Consider G627E, for which the “effect of a mutation on the interaction” value is listed as “with no effect”.

For the variant G627A, the “effect of a mutation on the interaction” value is “with no effect”.

In the case of G627K, the “effect of a mutation on the interaction” value was “with no effect”.

Turning to D649A, the “effect of a mutation on the interaction” value was “with no effect”.

As to D649K, the “effect of a mutation on the interaction” value was “with no effect”.

Turning to D649E, the “effect of a mutation on the interaction” value is listed as “with no effect”.

Consider I679E, for which the “effect of a mutation on the interaction” value is given as “with no effect”.

Regarding I679K, the “effect of a mutation on the interaction” value was “with no effect”.

Consider I679A, for which the “effect of a mutation on the interaction” value is given as “with no effect”.

For L624K, the “effect of a mutation on the interaction” value is reported as “with no effect”.

For L624A, the “effect of a mutation on the interaction” value is given as “with no effect”.

As for L624E, the “effect of a mutation on the interaction” value is listed as “with no effect”.

For the variant R686A, the “effect of a mutation on the interaction” value is reported as “with no effect”.

Consider R686E, for which the “effect of a mutation on the interaction” value is on record as “with no effect”.
